We go through one molecule from US20250312453A1.

For this experiment, the target named is MSLN (UniProt Q13421). The experiment can be described thus: BLI.
MSLN, sequence (Q13421 other isoform, or with tags, fused parts or gaps limits assumed): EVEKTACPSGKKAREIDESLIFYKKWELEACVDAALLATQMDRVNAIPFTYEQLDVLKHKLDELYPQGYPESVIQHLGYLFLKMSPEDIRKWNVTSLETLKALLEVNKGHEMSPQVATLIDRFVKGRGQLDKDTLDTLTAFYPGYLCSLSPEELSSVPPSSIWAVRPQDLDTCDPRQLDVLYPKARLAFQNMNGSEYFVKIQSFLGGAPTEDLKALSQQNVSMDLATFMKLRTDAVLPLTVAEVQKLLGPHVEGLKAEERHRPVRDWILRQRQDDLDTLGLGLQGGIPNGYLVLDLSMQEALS

B1: nanobody NM5 (VHH)
VHH: DVQLQESGGGLVQAGGSLRLSCVGAGVSFSPYGIGWWRQAQGNQREWVASIYRSGSTNYEDFAKDRFTISRDNTKNTAYLQMNSLKPEDTAVYYCQILGTSYRGQGTQVTVSS
In turn, B1 displayed a Kd of 11.4 nM.

A word on the Kd: it is the free concentration of one partner at which half of the binding sites on the other are occupied at equilibrium, for simple one-to-one binding. A low value points to higher affinity.
